# Assays:
# Details in all cases: partners not purified
# [1] = biological target: Cerulean-CaVβ1 ( (human or rat cDNA cloned), UniProt Q02641-1); experiment: FRET or BRET; flow cytometry FRET (flow-FRET) in live HEK293 cells co-transfected with Venus-nanobody and Cerulean-CaVβ; FRET efficiency against free nanobody fitted with a 1:1 binding model; effective dissociation constant (Kd,EFF); cycloheximide 100 μM 2 h before
# [2] = biological target: Cerulean-CaVβ2 ( (human or rat cDNA cloned), UniProt Q08289); experiment: as above
# [3] = biological target: Cerulean-CaVβ3 ( (human or rat cDNA cloned), UniProt P54284); experiment: as above
# [4] = biological target: Cerulean-CaVβ4 ( (human or rat cDNA cloned), UniProt O00305); experiment: as above
# [5] = biological target: T1, Venus-tagged β1b[NK-CT] (Rattus norvegicus (assumed), UniProt P54283); experiment: FRET or BRET; flow cytometry FRET (flow-FRET) in HEK293 cells co-expressing Cerulean-nb.E8 and Venus-tagged β1b modules or β1b/β3 chimeras; 1:1 binding model; effective dissociation constant (Kd,EFF)
# T1 construct: CaVβ1b module of the NK domain and the C-terminus; the text says the module was tagged with Cerulean; source: HEK293, co-expressed, in cells
# T1 sequence (P54283 whole entry, looked up, the tested form may be a part): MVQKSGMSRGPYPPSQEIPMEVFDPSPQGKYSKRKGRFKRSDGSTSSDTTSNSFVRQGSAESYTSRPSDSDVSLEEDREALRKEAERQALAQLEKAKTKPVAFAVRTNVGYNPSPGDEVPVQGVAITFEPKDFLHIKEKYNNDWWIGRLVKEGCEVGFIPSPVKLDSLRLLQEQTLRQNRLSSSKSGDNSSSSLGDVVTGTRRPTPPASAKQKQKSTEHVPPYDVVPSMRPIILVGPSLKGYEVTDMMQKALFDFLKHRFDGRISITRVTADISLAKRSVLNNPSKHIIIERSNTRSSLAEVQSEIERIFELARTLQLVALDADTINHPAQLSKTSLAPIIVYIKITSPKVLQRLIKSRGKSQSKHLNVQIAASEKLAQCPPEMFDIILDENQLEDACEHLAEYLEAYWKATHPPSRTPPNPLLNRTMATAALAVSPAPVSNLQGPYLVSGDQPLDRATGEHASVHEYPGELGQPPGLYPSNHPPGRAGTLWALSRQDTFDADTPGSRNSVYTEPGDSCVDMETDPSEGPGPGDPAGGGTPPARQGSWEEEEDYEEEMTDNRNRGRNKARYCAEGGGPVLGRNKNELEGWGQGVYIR
# Cerulean-CaVβ3, sequence (P54284 whole entry): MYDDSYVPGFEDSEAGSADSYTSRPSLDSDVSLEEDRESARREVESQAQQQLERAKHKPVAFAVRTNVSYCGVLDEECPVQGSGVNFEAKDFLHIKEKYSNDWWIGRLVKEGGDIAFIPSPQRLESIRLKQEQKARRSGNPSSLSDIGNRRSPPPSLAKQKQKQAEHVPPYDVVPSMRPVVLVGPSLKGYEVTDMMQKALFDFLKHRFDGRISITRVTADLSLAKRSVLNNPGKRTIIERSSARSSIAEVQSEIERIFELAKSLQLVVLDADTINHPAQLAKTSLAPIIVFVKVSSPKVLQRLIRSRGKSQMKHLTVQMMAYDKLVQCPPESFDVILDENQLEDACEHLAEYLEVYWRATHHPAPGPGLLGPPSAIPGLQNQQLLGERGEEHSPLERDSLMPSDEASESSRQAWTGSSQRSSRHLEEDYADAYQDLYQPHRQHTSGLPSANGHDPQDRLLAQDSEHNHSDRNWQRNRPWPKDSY
# Cerulean-CaVβ1, sequence (Q02641 whole entry): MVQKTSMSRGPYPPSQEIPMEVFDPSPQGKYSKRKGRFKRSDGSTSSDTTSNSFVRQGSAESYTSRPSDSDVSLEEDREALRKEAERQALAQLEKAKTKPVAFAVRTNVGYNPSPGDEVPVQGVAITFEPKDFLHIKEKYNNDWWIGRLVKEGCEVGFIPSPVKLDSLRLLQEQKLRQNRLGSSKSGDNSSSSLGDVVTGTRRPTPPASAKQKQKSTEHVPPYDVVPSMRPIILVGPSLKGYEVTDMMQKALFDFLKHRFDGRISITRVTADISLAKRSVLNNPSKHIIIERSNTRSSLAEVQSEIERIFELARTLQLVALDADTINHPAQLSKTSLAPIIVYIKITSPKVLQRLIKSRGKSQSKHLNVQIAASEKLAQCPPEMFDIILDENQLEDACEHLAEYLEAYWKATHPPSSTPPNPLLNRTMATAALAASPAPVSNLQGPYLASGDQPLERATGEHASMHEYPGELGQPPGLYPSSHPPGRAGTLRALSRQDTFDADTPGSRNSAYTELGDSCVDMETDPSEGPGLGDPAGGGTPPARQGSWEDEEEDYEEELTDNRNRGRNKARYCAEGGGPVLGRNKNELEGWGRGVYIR
# Cerulean-CaVβ2, sequence (Q08289 whole entry): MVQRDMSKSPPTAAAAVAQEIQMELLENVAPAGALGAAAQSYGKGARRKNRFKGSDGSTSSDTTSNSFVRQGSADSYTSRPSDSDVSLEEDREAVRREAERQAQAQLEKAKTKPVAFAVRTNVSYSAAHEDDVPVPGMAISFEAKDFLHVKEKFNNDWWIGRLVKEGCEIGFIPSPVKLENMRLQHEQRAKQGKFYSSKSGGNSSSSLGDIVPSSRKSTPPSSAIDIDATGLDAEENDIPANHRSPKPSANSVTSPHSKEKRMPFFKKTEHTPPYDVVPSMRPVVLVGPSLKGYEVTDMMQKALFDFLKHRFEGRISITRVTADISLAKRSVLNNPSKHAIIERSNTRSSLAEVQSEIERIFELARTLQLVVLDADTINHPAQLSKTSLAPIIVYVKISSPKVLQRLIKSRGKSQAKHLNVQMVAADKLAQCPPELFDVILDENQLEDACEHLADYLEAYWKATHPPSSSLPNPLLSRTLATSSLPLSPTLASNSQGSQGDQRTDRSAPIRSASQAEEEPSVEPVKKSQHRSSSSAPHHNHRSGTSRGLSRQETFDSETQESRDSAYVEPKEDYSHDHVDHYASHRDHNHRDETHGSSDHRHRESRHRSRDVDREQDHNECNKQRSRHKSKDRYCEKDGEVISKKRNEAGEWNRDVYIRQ
binder,measurement,setting,value
"Venus-nb.F3 (VHH, llama nanobody nb.F3 from a phage display library; The methods say the nanobodies were cloned upstream of a Venus marker (pCDNA3.1), while the name Venus-nb.F3 puts the tag first; also called Venus-tagged nb.F3; source: HEK293, transiently co-transfected, in cells; not shown: Venus, C-terminal, kept) VHH: QVQLQESGGGLVQAGGSLRLSCVASGRTFSSYAMGWFRQAPGKEREFVAAIDWSGGTASHADSVKGRFTISRDNAKNTVYLQMNSLKPEDTAVYYCAASSYWSRSVDEYDYWGQGTQVTVSS",binding result,[1],binds
same,binding result,[2],binds
same,binding result,[3],binds
same,binding result,[4],binds
"Venus-nb.E8 (VHH, llama nanobody nb.E8 from a phage display library; The methods say the nanobodies were cloned upstream of a Venus marker (pCDNA3.1), while the name Venus-nb.E8 puts the tag first; also called Venus-tagged nb.E8; source: HEK293, transiently co-transfected, in cells; not shown: Venus, C-terminal, kept) VHH: QVQLQESGGGSVQAGGSLRLSCAASGRTFSKNAMGWFRQAPGKEREFVVAISWSGRNTYYADSVKGRFTISRDNAKNTVDLQMNSLKPEDSAVYYCAVGGDWRVYDISFYYTAHQYEYWGQGTQVTVSS",binding result,[1],binds
same,binding result,[2],no binding
same,binding result,[3],no binding
same,binding result,[4],no binding
"Cerulean-nb.E8 (VHH, the text of the results says that the CaVβ1 modules carried Cerulean; source: HEK293, co-expressed, in cells) VHH: QVQLQESGGGSVQAGGSLRLSCAASGRTFSKNAMGWFRQAPGKEREFVVAISWSGRNTYYADSVKGRFTISRDNAKNTVDLQMNSLKPEDSAVYYCAVGGDWRVYDISFYYTAHQYEYWGQGTQVTVSS",binding result,[5],no binding
